From patent publication US20060263361A1
Values joined by “and” are separate entries in the source; they are usually repeats but may differ in a detail not shown here. Identical values can stand only once. Values belong to the substance of their own block, whether it stands above or below them.

How the values were obtained:
[1] = target: recombinant KIR2DL1 protein (entire extracellular domain, produced in E. coli, immobilized) (human) (UniProt P43626); test: Biacore, KIR2DL1 chip; first Ab EB6 vs competitor (second Ab) 1-7F9
Chain of recombinant KIR2DL1 protein (entire extracellular domain, produced in E. coli, immobilized) (human) (P43626 22-245): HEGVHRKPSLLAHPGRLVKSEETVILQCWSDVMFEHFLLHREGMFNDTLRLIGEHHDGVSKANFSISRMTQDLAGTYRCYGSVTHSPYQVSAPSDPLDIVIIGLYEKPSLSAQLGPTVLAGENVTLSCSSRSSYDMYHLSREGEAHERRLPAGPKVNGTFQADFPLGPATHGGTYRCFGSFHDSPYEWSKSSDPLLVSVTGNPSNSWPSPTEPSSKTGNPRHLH

[2] = target: recombinant KIR2DL1 protein (entire extracellular domain, produced in E. coli, immobilized) (human) (UniProt P43626); test: Biacore, KIR2DL1 chip; first Ab EB6 vs competitor (second Ab) EB6 (self)
[3] = target: recombinant KIR2DL1 protein (entire extracellular domain, produced in E. coli, immobilized) (human) (UniProt P43626); test: Biacore, KIR2DL1 chip; first Ab EB6 vs competitor (second Ab) Pan2D
[4] = target: recombinant KIR2DL1 protein (entire extracellular domain, produced in E. coli, immobilized) (human) (UniProt P43626); test: Biacore, KIR2DL1 chip; first Ab EB6 vs competitor (second Ab) 1-4F1
[5] = target: recombinant KIR2DL1 protein (entire extracellular domain, produced in E. coli, immobilized) (human) (UniProt P43626); test: Biacore, KIR2DL1 chip; first Ab EB6 vs competitor (second Ab) DF200
[6] = target: recombinant KIR2DL1 protein (entire extracellular domain, produced in E. coli, immobilized) (human) (UniProt P43626); test: Biacore, KIR2DL1 chip; first Ab EB6 vs competitor (second Ab) 1-6F1
[7] = target: recombinant KIR2DL1 protein (entire extracellular domain, produced in E. coli, immobilized) (human) (UniProt P43626); test: Biacore, KIR2DL1 chip; second Ab injected alone
[8] = target: recombinant KIR2DL3 protein (entire extracellular domain, produced in E. coli, immobilized) (human) (UniProt P43628); test: Biacore, KIR2DL3 chip; first Ab gl183 vs competitor (second Ab) Pan2D
Chain of recombinant KIR2DL3 protein (entire extracellular domain, produced in E. coli, immobilized) (human) (P43628 22-245): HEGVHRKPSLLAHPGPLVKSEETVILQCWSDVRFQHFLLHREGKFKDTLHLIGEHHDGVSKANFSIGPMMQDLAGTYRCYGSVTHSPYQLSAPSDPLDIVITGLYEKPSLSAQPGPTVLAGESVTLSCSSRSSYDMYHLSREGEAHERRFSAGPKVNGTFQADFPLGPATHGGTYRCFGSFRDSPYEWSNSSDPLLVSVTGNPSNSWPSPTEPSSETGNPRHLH

[9] = target: recombinant KIR2DL3 protein (entire extracellular domain, produced in E. coli, immobilized) (human) (UniProt P43628); test: Biacore, KIR2DL3 chip; first Ab gl183 vs competitor (second Ab) 1-4F1
[10] = target: recombinant KIR2DL3 protein (entire extracellular domain, produced in E. coli, immobilized) (human) (UniProt P43628); test: Biacore, KIR2DL3 chip; first Ab gl183 vs competitor (second Ab) 1-7F9
[11] = target: recombinant KIR2DL3 protein (entire extracellular domain, produced in E. coli, immobilized) (human) (UniProt P43628); test: Biacore, KIR2DL3 chip; first Ab gl183 vs competitor (second Ab) 1-6F1
[12] = target: recombinant KIR2DL3 protein (entire extracellular domain, produced in E. coli, immobilized) (human) (UniProt P43628); test: Biacore, KIR2DL3 chip; second Ab injected alone
[13] = target: recombinant KIR2DL3 protein (entire extracellular domain, produced in E. coli, immobilized) (human) (UniProt P43628); test: Biacore, KIR2DL3 chip; first Ab gl183 vs competitor (second Ab) DF200
[14] = target: recombinant KIR2DL3 protein (entire extracellular domain, produced in E. coli, immobilized) (human) (UniProt P43628); test: Biacore, KIR2DL3 chip; first Ab DF200 vs competitor (second Ab) 1-6F5
[15] = target: recombinant KIR2DL1 protein (entire extracellular domain, produced in E. coli, immobilized) (human) (UniProt P43626); test: Biacore, KIR2DL1 chip; first Ab DF200 vs competitor (second Ab) 1-6F1
[16] = target: recombinant KIR2DL3 protein (entire extracellular domain, produced in E. coli, immobilized) (human) (UniProt P43628); test: Biacore, KIR2DL3 chip; first Ab DF200 vs competitor (second Ab) Pan2D
immobilized KIR 2DS1 [17] = target: immobilized KIR 2DS1 (UniProt Q14954); test: Biacore, KIR2DS1 chip; first Ab DF200 vs competitor (second Ab) 1-7F9
Chain of immobilized KIR 2DS1 (Q14954 22-245 limits assumed): as the sequence (P43626 22-245) above, with T70K, V90L, L114P, P154T, D163N, H182R, K216E counted along it

immobilized KIR 2DS1 [18] = target: immobilized KIR 2DS1 (UniProt Q14954); test: Biacore, KIR2DS1 chip; first Ab DF200 vs competitor (second Ab) Pan2D
[19] = target: recombinant KIR2DL3 protein (entire extracellular domain, produced in E. coli, immobilized) (human) (UniProt P43628); test: Biacore, KIR2DL3 chip; first Ab DF200 vs competitor (second Ab) 1-4F1
[20] = target: recombinant KIR2DL3 protein (entire extracellular domain, produced in E. coli, immobilized) (human) (UniProt P43628); test: Biacore, KIR2DL3 chip; first Ab DF200 vs competitor (second Ab) 1-6F1
[21] = target: recombinant KIR2DL1 protein (entire extracellular domain, produced in E. coli, immobilized) (human) (UniProt P43626); test: Biacore, KIR2DL1 chip; first Ab DF200 vs competitor (second Ab) 1-6F5
[22] = target: recombinant KIR2DL3 protein (entire extracellular domain, produced in E. coli, immobilized) (human) (UniProt P43628); test: Biacore, KIR2DL3 chip; first Ab DF200 vs competitor (second Ab) gl183
[23] = target: recombinant KIR2DL1 protein (entire extracellular domain, produced in E. coli, immobilized) (human) (UniProt P43626); test: Biacore, KIR2DL1 chip; first Ab DF200 vs competitor (second Ab) 1-7F9
[24] = target: recombinant KIR2DL1 protein (entire extracellular domain, produced in E. coli, immobilized) (human) (UniProt P43626); test: Biacore, KIR2DL1 chip; first Ab DF200 vs competitor (second Ab) EB6
[25] = target: recombinant KIR2DL1 protein (entire extracellular domain, produced in E. coli, immobilized) (human) (UniProt P43626); test: Biacore, KIR2DL1 chip; first Ab DF200 vs competitor (second Ab) Pan2D
[26] = target: recombinant KIR2DL1 protein (entire extracellular domain, produced in E. coli, immobilized) (human) (UniProt P43626); test: Biacore, KIR2DL1 chip; first Ab DF200 vs competitor (second Ab) 1-4F1
immobilized KIR 2DS1 [27] = target: immobilized KIR 2DS1 (UniProt Q14954); test: Biacore, KIR2DS1 chip; second Ab injected alone
immobilized KIR 2DS1 [28] = target: immobilized KIR 2DS1 (UniProt Q14954); test: Biacore, KIR2DS1 chip; first Ab DF200 vs competitor (second Ab) 1-4F1
[29] = target: recombinant KIR2DL3 protein (entire extracellular domain, produced in E. coli, immobilized) (human) (UniProt P43628); test: Biacore, KIR2DL3 chip; first Ab DF200 vs competitor (second Ab) 1-7F9
[30] = target: recombinant KIR2DL1 protein (entire extracellular domain, produced in E. coli, immobilized) (human) (UniProt P43626); test: Biacore, KIR2DL1 chip; first Ab Pan2D vs competitor (second Ab) 1-7F9
[31] = target: recombinant KIR2DL1 protein (entire extracellular domain, produced in E. coli, immobilized) (human) (UniProt P43626); test: Biacore, KIR2DL1 chip; first Ab Pan2D vs competitor (second Ab) EB6
[32] = target: recombinant KIR2DL3 protein (entire extracellular domain, produced in E. coli, immobilized) (human) (UniProt P43628); test: Biacore, KIR2DL3 chip; first Ab Pan2D vs competitor (second Ab) 1-6F5
[33] = target: recombinant KIR2DL3 protein (entire extracellular domain, produced in E. coli, immobilized) (human) (UniProt P43628); test: Biacore, KIR2DL3 chip; first Ab Pan2D vs competitor (second Ab) gl183
[34] = target: recombinant KIR2DL3 protein (entire extracellular domain, produced in E. coli, immobilized) (human) (UniProt P43628); test: Biacore, KIR2DL3 chip; first Ab Pan2D vs competitor (second Ab) 1-7F9
[35] = target: recombinant KIR2DL1 protein (entire extracellular domain, produced in E. coli, immobilized) (human) (UniProt P43626); test: Biacore, KIR2DL1 chip; first Ab Pan2D vs competitor (second Ab) 1-6F1
[36] = target: recombinant KIR2DL1 protein (entire extracellular domain, produced in E. coli, immobilized) (human) (UniProt P43626); test: Biacore, KIR2DL1 chip; first Ab Pan2D vs competitor (second Ab) 1-4F1
immobilized KIR 2DS1 [37] = target: immobilized KIR 2DS1 (UniProt Q14954); test: Biacore, KIR2DS1 chip; first Ab Pan2D vs competitor (second Ab) 1-4F1
immobilized KIR 2DS1 [38] = target: immobilized KIR 2DS1 (UniProt Q14954); test: Biacore, KIR2DS1 chip; first Ab Pan2D vs competitor (second Ab) 1-7F9
[39] = target: recombinant KIR2DL1 protein (entire extracellular domain, produced in E. coli, immobilized) (human) (UniProt P43626); test: Biacore, KIR2DL1 chip; first Ab Pan2D vs competitor (second Ab) DF200
immobilized KIR 2DS1 [40] = target: immobilized KIR 2DS1 (UniProt Q14954); test: Biacore, KIR2DS1 chip; first Ab Pan2D vs competitor (second Ab) DF200
[41] = target: recombinant KIR2DL3 protein (entire extracellular domain, produced in E. coli, immobilized) (human) (UniProt P43628); test: Biacore, KIR2DL3 chip; first Ab Pan2D vs competitor (second Ab) 1-4F1
[42] = target: recombinant KIR2DL3 protein (entire extracellular domain, produced in E. coli, immobilized) (human) (UniProt P43628); test: Biacore, KIR2DL3 chip; first Ab Pan2D vs competitor (second Ab) 1-6F1
[43] = target: recombinant KIR2DL1 protein (entire extracellular domain, produced in E. coli, immobilized) (human) (UniProt P43626); test: Biacore, KIR2DL1 chip; first Ab Pan2D vs competitor (second Ab) 1-6F5
[44] = target: recombinant KIR2DL3 protein (entire extracellular domain, produced in E. coli, immobilized) (human) (UniProt P43628); test: Biacore, KIR2DL3 chip; first Ab Pan2D vs competitor (second Ab) DF200

- percent inhibition of second antibody binding [1]: 65%
- percent inhibition of second antibody binding [2]: 57%
- percent inhibition of second antibody binding [3]: 40%
- percent inhibition of second antibody binding [4]: 48%
- percent inhibition of second antibody binding [5]: 60%
- percent inhibition of second antibody binding [6]: 23%
- RU, second antibody alone [7]: 460 RU and 260 RU
Substance: EB6 (IgG1 anti KIR2DL1) (antibody)

- percent inhibition of second antibody binding [8]: 40%
- percent inhibition of second antibody binding [9]: 75%
- percent inhibition of second antibody binding [10]: 76%
- percent inhibition of second antibody binding [11]: 18%
- RU, second antibody alone [12]: 1240 RU and 800 RU and 620 RU
- percent inhibition of second antibody binding [13]: 8%
Substance: GL183 (IgG1 anti KIR2DL3) (antibody)

- percent inhibition of second antibody binding [14]: 4%
- percent inhibition of second antibody binding [15]: 15%
- percent inhibition of second antibody binding [16]: 75%
- percent inhibition of second antibody binding (immobilized KIR 2DS1 [17]): 15%
- percent inhibition of second antibody binding (immobilized KIR 2DS1 [18]): 70%
- percent inhibition of second antibody binding [19]: 75%
- percent inhibition of second antibody binding [20]: 16%
- percent inhibition of second antibody binding [21]: 15%
- percent inhibition of second antibody binding [22]: 20%
- percent inhibition of second antibody binding [23]: 27%
- percent inhibition of second antibody binding [24]: 90%
- percent inhibition of second antibody binding [25]: 80%
- percent inhibition of second antibody binding [26]: 92%
- RU, second antibody alone (immobilized KIR 2DS1 [27]): 900 RU
- percent inhibition of second antibody binding (immobilized KIR 2DS1 [28]): 87%
- RU, second antibody alone [7]: 600 RU and 350 RU
- percent inhibition of second antibody binding [29]: 62%
Substance: monoclonal antibody DF200 produced by hybridoma DF200

- percent inhibition of second antibody binding [30]: 2%
- percent inhibition of second antibody binding [31]: 90%
- percent inhibition of second antibody binding [32]: 18%
- percent inhibition of second antibody binding [33]: 85%
- percent inhibition of second antibody binding [34]: 15%
- percent inhibition of second antibody binding [35]: 12%
- percent inhibition of second antibody binding [36]: 95%
- percent inhibition of second antibody binding (immobilized KIR 2DS1 [37]): 100%
- percent inhibition of second antibody binding (immobilized KIR 2DS1 [38]): 45%
- percent inhibition of second antibody binding [39]: 90%
- percent inhibition of second antibody binding (immobilized KIR 2DS1 [40]): 100%
- percent inhibition of second antibody binding [41]: 68%
- RU, second antibody alone [12]: 2400 RU and 870 RU and 990 RU
- percent inhibition of second antibody binding [42]: 8%
- RU, second antibody alone (immobilized KIR 2DS1 [27]): 1350 RU
- RU, second antibody alone [7]: 545 RU and 475 RU
- percent inhibition of second antibody binding [43]: 13%
- percent inhibition of second antibody binding [44]: 95%
Substance: monoclonal antibody NKVSF1
